Molecular target: T1, cynomolgus monkey CD79b antigen (cynomolgus monkey)
T1 construct: also called cyno CD79b; CD9W1.001
Assay: SPR, cyno CD79b against human CD79b (refers to Table 32)

B1: C923B38 (trispecific antibody, human IgG1, kappa, L234A L235A)
heavy: QVQLQESGPGLVKPSETLSLTCSVSGASISSFYWSWIRQPADEGLEWIGRISPSGKTNYIPSLKSRIIMSLDASKNQFSLRLNSVTAADTAMYYCARGEYSGTYSYSFDVWGQGTMVTVSSASTKGPSVFPLAPSSKSTSGGTAALGCLVKDYFPEPVTVSWNSGALTSGVHTFPAVLQSSGLYSLSSVVTVPSSSLGTQTYICNVNHKPSNTKVDKKVEPKSCDKTHTCPPCPAPEAAGGPSVFLFPPKPKDTLMISRTPEVTCVVVSVSHEDPEVKFNWYVDGVEVHNAKTKPREEQYNSTYRVVSVLTVLHQDWLNGKEYKCKVSNKALPAPIEKTISKAKGQPREPQVYTLPPSREEMTKNQVSLSCAVKGFYPSDIAVEWESNGQPENNYKTTPPVLDSDGSFFLVSKLTVDKSRWQQGNVFSCSVMHEALHNRFTQKSLSLSPGK
light: DIVMTQSPLSLSVTPGEPASISCRSSESLLDSEDGNTYLDWFLQKPGQSPQLLIYTLSYRASGVPDRFSGSGSDTDFTLHISSLEAEDVGLYYCMQRMEFPLTFGQGTKVEIKRTVAAPSVFIFPPSDEQLKSGTASVVCLLNNFYPREAKVQWKVDNALQSGNSQESVTEQDSKDSTYSLSSTLTLSKADYEKHKVYACEVTHQGLSSPVTKSFNRGEC
chain: EIVLTQSPATLSASPGERVTLSCSASSSVSYMNWYQQKPGQAPRRWIYDSSKLASGVPARFSGSGSGRDYTLTISSLEPEDFAVYYCQQWSRNPPTFGGGTKVEIKGGSEGKSSGSGSESKSTGGSQVQLVQSGAEVKKPGSSVKVSCKASGYTFTRSTMHWVKQAPGQGLEWIGYINPSSAYTNYNQKFQGRVTLTADKSTSTAYMELSSLRSEDTAVYYCASPQVHYDYAGFPYWGQGTLVTVSSEPKSSDKTHTCPPCPAPEAAGGPSVFLFPPKPKDTLMISRTPEVTCVVVSVSHEDPEVKFNWYVDGVEVHNAKTKPREEQYNSTYRVVSVLTVLHQDWLNGKEYKCKVSNKALPAPIEKTISKAKGQPREPQVYTLPPSREEMTKNQVSLWCLVKGFYPSDIAVEWESNGQPENNYKTTPPVLDSDGSFFLYSKLTVDKSRWQQGNVFSCSVMHEALHNHYTQKSLSLSPGKGGSEGKSSGSGSESKSTGGSAIQLTQSPSSLSASVGDRVTITCRASSSVSYIHWFQQKPGKAPKPLIYATSNLASGVPSRFSGSGSGTDFTLTISSLQPEDFATYYCQQWTSNPPTFGQGTKLEIKGGSEGKSSGSGSESKSTGGSQVQLVQSGAEVKKPGSSVKVSCKASGYTFTSYNMHWVRQAPGQGLEWMGAIYPGNGDTSYAQKFQGRVTITADKSTSTAYMELSSLRSEDTAVYYCARSTYYGGDWYFNVWGQGTLVTVSS
notes: IgG1 trispecific: Fab to CD79b; second chain carries the CD3 scFv, the Fc and the CD20 scFv; also called CD79b×CD20×CD3 trispecific antibody
For B1, which “fold weaker affinity compared to human” value is on record?
The value was greater than 10000 fold.

Reference: patent US20220315663A1 (published 2022)
